We go through one molecule from paper PMC9036127, “The nuclease activity of DNA2 promotes exonuclease 1–independent mismatch repair” (The Journal of Biological Chemistry, 2022).

The test addresses T1, Human MutSα (MSH2-MSH6 heterodimer) (human, UniProt P43246 1-934; P52701 1-1360).
T1 construct: MSH2, human, subunit of MutSα; MSH6, human, subunit of MutSα
In words: co-IP; purified proteins; MutSα- or MutLα-containing agarose beads (antibodies against MSH2 or MLH1), DNA2 in solution; for MutSα 30-μl mixtures with MutSα (3.4 pmol) and DNA2 (3.4 pmol); eluted fractions analyzed by immunoblotting. Conditions: both partners purified. For orientation: Immunoblotting shows a protein as a band on a membrane.

T1 sequence (P43246 whole entry, chain 1 of 2): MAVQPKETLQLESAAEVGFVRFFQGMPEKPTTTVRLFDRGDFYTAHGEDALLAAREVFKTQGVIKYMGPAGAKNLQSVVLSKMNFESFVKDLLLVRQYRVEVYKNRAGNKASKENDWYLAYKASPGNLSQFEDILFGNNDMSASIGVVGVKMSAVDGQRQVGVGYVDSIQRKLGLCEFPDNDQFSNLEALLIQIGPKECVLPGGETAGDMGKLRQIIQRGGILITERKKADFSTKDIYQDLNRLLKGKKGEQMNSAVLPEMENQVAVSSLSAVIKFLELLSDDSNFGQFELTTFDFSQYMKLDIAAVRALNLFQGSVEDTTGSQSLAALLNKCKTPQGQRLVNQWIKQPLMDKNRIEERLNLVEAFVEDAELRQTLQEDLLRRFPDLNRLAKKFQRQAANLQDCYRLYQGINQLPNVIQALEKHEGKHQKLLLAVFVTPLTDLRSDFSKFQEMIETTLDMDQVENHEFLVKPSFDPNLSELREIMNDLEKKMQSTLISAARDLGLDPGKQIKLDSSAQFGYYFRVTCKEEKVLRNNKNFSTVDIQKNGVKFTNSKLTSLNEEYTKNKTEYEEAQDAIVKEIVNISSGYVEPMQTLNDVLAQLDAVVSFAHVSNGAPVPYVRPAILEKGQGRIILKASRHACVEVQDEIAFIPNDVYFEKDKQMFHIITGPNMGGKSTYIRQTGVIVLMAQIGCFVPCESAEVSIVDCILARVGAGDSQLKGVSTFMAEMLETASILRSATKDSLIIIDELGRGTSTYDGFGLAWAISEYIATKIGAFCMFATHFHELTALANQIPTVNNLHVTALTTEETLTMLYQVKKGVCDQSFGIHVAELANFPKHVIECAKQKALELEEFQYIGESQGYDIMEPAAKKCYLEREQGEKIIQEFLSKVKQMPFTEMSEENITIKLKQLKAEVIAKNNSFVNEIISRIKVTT
T1 sequence (P52701 whole entry, chain 2 of 2): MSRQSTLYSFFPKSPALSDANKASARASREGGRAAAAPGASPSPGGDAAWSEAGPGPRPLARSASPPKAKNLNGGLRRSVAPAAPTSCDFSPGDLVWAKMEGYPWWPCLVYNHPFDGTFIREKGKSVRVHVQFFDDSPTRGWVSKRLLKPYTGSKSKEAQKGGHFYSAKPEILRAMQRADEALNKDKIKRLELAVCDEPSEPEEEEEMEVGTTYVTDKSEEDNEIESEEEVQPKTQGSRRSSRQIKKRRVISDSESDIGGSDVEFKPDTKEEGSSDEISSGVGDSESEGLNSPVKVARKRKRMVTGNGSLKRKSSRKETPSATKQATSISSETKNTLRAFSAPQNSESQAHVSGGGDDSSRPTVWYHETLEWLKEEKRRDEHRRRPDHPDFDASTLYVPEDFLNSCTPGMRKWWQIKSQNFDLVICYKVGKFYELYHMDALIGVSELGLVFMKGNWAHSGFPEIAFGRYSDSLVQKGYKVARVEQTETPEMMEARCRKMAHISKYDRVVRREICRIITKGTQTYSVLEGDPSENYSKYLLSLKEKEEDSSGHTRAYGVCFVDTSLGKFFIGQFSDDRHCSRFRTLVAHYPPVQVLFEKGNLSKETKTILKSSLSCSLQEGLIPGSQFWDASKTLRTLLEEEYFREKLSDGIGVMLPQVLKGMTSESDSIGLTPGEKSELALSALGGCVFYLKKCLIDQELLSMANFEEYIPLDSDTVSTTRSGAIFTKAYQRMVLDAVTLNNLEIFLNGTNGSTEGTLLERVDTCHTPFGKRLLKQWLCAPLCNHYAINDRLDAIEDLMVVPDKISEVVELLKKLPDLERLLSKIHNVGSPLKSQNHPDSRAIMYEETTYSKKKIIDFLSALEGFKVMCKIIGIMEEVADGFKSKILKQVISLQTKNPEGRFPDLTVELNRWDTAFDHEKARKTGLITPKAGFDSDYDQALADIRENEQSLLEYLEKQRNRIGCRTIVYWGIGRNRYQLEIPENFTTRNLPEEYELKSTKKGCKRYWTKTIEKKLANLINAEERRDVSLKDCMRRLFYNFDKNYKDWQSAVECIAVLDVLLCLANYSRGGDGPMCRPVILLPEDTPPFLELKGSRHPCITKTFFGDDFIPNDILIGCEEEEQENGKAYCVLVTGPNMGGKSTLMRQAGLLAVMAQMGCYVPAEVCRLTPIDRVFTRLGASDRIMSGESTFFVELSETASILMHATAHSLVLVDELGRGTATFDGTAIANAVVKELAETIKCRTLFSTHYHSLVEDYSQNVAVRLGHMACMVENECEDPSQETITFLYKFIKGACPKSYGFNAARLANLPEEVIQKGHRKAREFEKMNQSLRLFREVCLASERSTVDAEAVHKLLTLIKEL

B1: Human DNA2 nuclease/helicase (enzyme, UniProt P51530 1-1060, looked up)
chain: MEQLNELELLMEKSFWEEAELPAELFQKKVVASFPRTVLSTGMDNRYLVLAVNTVQNKEGNCEKRLVITASQSLENKELCILRNDWCSVPVEPGDIIHLEGDCTSDTWIIDKDFGYLILYPDMLISGTSIASSIRCMRRAVLSETFRSSDPATRQMLIGTVLHEVFQKAINNSFAPEKLQELAFQTIQEIRHLKEMYRLNLSQDEIKQEVEDYLPSFCKWAGDFMHKNTSTDFPQMQLSLPSDNSKDNSTCNIEVVKPMDIEESIWSPRFGLKGKIDVTVGVKIHRGYKTKYKIMPLELKTGKESNSIEHRSQVVLYTLLSQERRADPEAGLLLYLKTGQMYPVPANHLDKRELLKLRNQMAFSLFHRISKSATRQKTQLASLPQIIEEEKTCKYCSQIGNCALYSRAVEQQMDCSSVPIVMLPKIEEETQHLKQTHLEYFSLWCLMLTLESQSKDNKKNHQNIWLMPASEMEKSGSCIGNLIRMEHVKIVCDGQYLHNFQCKHGAIPVTNLMAGDRVIVSGEERSLFALSRGYVKEINMTTVTCLLDRNLSVLPESTLFRLDQEEKNCDIDTPLGNLSKLMENTFVSKKLRDLIIDFREPQFISYLSSVLPHDAKDTVACILKGLNKPQRQAMKKVLLSKDYTLIVGMPGTGKTTTICTLVRILYACGFSVLLTSYTHSAVDNILLKLAKFKIGFLRLGQIQKVHPAIQQFTEQEICRSKSIKSLALLEELYNSQLIVATTCMGINHPIFSRKIFDFCIVDEASQISQPICLGPLFFSRRFVLVGDHQQLPPLVLNREARALGMSESLFKRLEQNKSAVVQLTVQYRMNSKIMSLSNKLTYEGKLECGSDKVANAVINLRHFKDVKLELEFYADYSDNPWLMGVFEPNNPVCFLNTDKVPAPEQVEKGGVSNVTEAKLIVFLTSIFVKAGCSPSDIGIIAPYRQQLKIINDLLARSIGMVEVNTVDKYQGRDKSIVLVSFVRSNKDGTVGELLKDWRRLNVAITRAKHKLILLGCVPSLNCYPPLEKLLNHLNSEKLIIDLPSREHESLCHILGDFQRE
notes: DNA2 nuclease/helicase, human; wild type; source: insect Sf9 cells (baculovirus, codon-optimized gene), purified (α-Flag M2 beads, MonoS column)
Turning to B1, the binding result is given as “binds”.
